In patent publication US20050064556A1:

Molecular target: factor Xa
Experiment: cell-based or functional assay

factor Xa amidolytic assay, 50% inhibitory concentration: 20 ng/mL
Substance: Tissue Factor Pathway Inhibitor (TFPI), yeast-produced, authentic mature 276 amino acid polypeptide (from UniProt P10646 29-304)
